Substitutions are numbered along the chain they refer to.
B1: Fab 3b9 (Fab, V domains shown)
VH: LEQSGAEVKKPGASVKVSCQASGYRFSNFTVHWVRQAPGQRFEWMGWINPYNGNKEFSAKFQDRVTFTADTSANTAYMELRSLRSADTAVYYCARVGPWRWDDSPQDNYYMDVWGKGTIVIVSS
VL: ELTQSPGTLSLSPGERATFSCRSSHSIRSRRVAWYQHKPGQAPRLVIHGVSNRASGISDRFSGSGSGTDFTLTITRVEPEDFALYYCQVYGASSYTFGQGTKLERKR
B2: Fab 3b4 (Fab, V domains shown)
VH: LEQSGAEVKKPGASVKVSCQASGYRFSNYTLIWVRQAPGQRFEWMGWINPYNGNKEFSAKFQDRVTFTADTSANTAYMELRSLRSADTAVYYCARVGPWNWDSPQDNYYMDVWGKGTTVIVSS
VL: B1 VL
B3: Fab MT4 (Fab, V domains shown)
VH: B1 VH with T30V, V31I, W99Y, R100S, I119T
VL: B1 VL
notes: also called Fab 4; 4H (heavy chain)
B4: Fab M556-2 (Fab, V domains shown)
VH: B1 VH with P98E, R100G, D102E, D103Q, S104F, P105R, Q106F, I119T
VL: B1 VL
B5: Fab M556-7 (Fab, V domains shown)
VH: B1 VH with P98E, R100G, D102E, D103M, S104R, P105R, Q106F, I119T
VL: B1 VL
B6: Fab M556-15 (Fab, V domains shown)
VH: B1 VH with P98E, R100G, D102T, D103Q, S104R, P105R, Q106F, I119T
VL: B1 VL
B7: Fab M556-16 (Fab, V domains shown)
VH: B1 VH with P98E, R100G, D103Q, S104V, P105R, Q106Y, I119T
VL: B1 VL
B8: Fab M556-10 (Fab, V domains shown)
VH: B1 VH with P98E, R100G, D102H, D103Q, S104R, P105R, Q106Y, I119T
VL: B1 VL
B9: Fab M556-3 (Fab, V domains shown)
VH: B1 VH with P98E, R100G, D102E, D103M, S104F, P105R, Q106Y, I119T
VL: B1 VL
B10: Fab B (Fab, V domains shown)
VH: B1 VH with P98E, R100G, I119T
VL: B1 VL with S26T, I27V, R28Y, S29R, R30D
B11: Fab A (Fab, V domains shown)
VH: B1 VH with P98E, R100G, I119T
VL: B1 VL with S26K, I27E, R28F, S29G
B12: Fab D (Fab, V domains shown)
VH: B1 VH with P98E, R100G, I119T
VL: B1 VL with S26Q, I27L, R28D, S29G, R30S
B13: Fab QA2 (Fab, V domains shown)
VH: B1 VH with P98E, R100G, I119T
VL: B1 VL with S26Q, I27L, R28D, S29G, R30S, V89L, A92R, S93G, S94N
B14: Fab QA10 (Fab, V domains shown)
VH: B1 VH with P98E, R100G, I119T
VL: B1 VL with S26Q, I27L, R28D, S29G, R30S, V89T, A92R, S93G
B15: Fab QA11 (Fab, V domains shown)
VH: B1 VH with P98E, R100G, I119T
VL: B1 VL with S26Q, I27L, R28D, S29G, R30S, V89T, A92R, S93G, S94H
notes: also called LH (its light chain)
B16: Fab QA12 (Fab, V domains shown)
VH: B1 VH with P98E, R100G, I119T
VL: B1 VL with S26Q, I27L, R28D, S29G, R30S, V89T, A92R, S93G, S94I
B17: Fab QA9 (Fab, V domains shown)
VH: B1 VH with P98E, R100G, I119T
VL: B1 VL with S26Q, I27L, R28D, S29G, R30S, V89M, A92G, S93F, S94T
B18: Fab QA5 (Fab, V domains shown)
VH: B1 VH with P98E, R100G, I119T
VL: B1 VL with S26Q, I27L, R28D, S29G, R30S, V89T, A92W, S94G
B19: Fab QA1 (Fab, V domains shown)
VH: B1 VH with P98E, R100G, I119T
VL: B1 VL with S26Q, I27L, R28D, S29G, R30S, A92W, S94Q
B20: Fab QA4 (Fab, V domains shown)
VH: B1 VH with P98E, R100G, I119T
VL: B1 VL with S26Q, I27L, R28D, S29G, R30S, V89S, A92G, S93R, S94D
B21: Fab QA8 (Fab, V domains shown)
VH: B1 VH with P98E, R100G, I119T
VL: B1 VL with S26Q, I27L, R28D, S29G, R30S, V89Q, A92D, S94L
B22: composite Fab 4H/L42-1 (Fab, V domains shown)
VH: B1 VH with T30V, V31I, W99Y, R100S, I119T
VL: B1 VL with S26Q, I27L, R28D, S29G, R30S, V89Q, A92W, S93P, S94F
B23: composite Fab H33/LH-11 (Fab, V domains shown)
VH: LEQSGAEVKKPGASVKVSCQASGYRFSHFTLHWVRQAPGQRFEWHGWINPYNGNKEFSAKFQDRVTFTADTSANTAYMELRSLRSADTAVYYCARVGEWGWEMFRYDNYYMDVWGKGTTVIVSS
VL: B1 VL with S26Q, I27L, R28D, S29G, R30S, V89T, A92R, S93G, S94H
B24: composite Fab H33/L42-17 (Fab, V domains shown)
VH: B23 VH
VL: B1 VL with S26Q, I27L, R28D, S29G, R30S, V89Q, A92W, S93P, S94F
B25: composite Fab H101/L42-16 (Fab, V domains shown)
VH: B23 VH with L31V, E102H, M103Q, F104R
VL: B1 VL with S26Q, I27L, R28D, S29G, R30S, V89Q, A92W, S93P, S94F
B26: composite Fab H101/L42-1 (Fab, V domains shown)
VH: B23 VH with L31V, E102H, M103Q, F104R
VL: B1 VL with S26Q, I27L, R28D, S29G, R30S, V89Q, A92W, S93P, S94F
B27: composite Fab H103/L42-4 (Fab, V domains shown)
VH: B23 VH with E102H, M103Q, F104R
VL: B1 VL with S26Q, I27L, R28D, S29G, R30S, V89Q, A92W, S93P, S94F
B28: composite Fab H31/4L-14 (Fab, V domains shown)
VH: B23 VH with L31V
VL: B1 VL
B29: composite Fab H101/4L-1 (Fab, V domains shown)
VH: B23 VH with L31V, E102H, M103Q, F104R
VL: B1 VL

The binders below were run against gp120 glycoprotein of HIV-1 strain MN (HIV-1 strain MN, UniProt P05877 32-513, limits assumed) (assay: cell-based or functional assay).
With B1 the “IC50 (M^-1), syncytium neutralization assay, HIV-1 MN on CEM-SS cells” value (shortened to “IC50”) was 6.4e+09 M⁻¹ and the “Neutralization Titer (ng/ml), syncytium assay, HIV-1 MN” value (“Neutralization Titer (ng/ml)” below) was 7.8 ng/mL. B2 was tested, and the “IC50” value was 2.57e+09 M⁻¹ and the “Neutralization Titer (ng/ml)” value was 19.4 ng/mL. In the case of B3, the “IC50” value is reported as 1.69e+08 M⁻¹ and the “Neutralization Titer (ng/ml)” value is reported as 296 ng/mL.

The binders below were run against T1, recombinant gp120 of HIV-1 strain IIIb (HIV-1 strain IIIb, UniProt P04578 33-511) (assay: SPR BIAcore, gp120 on chip;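 on Ka: fab fragments flowed at 0.5 to 10 ug/ml over immobilized gp120, resonance units tracked during association and dissociation, equilibrium constants derived from the rate constants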).
T1 construct: domain: gp120; also called IIIb-derived gp120; gp 120 (IIIB strain)
Excerpt: (§1) As the mass of the gold chips increases due to the binding of the Fabs to the ligand, the refractive index of the chips increases indicating a coordinate increase in the increase of the mass. Measurements of the "on" rate are made in addition to the "off" rates, the latter of which occurs as the Fabs begin to dissociate from the ligand and the mass coordinately decreases, thereby allowing a measurement of the change of the refractive index. Briefly, the sensor chip was activated for immobilization with N-hydroxysuccinimide an N-ethyl-N'-(3-diethyl aminopropyl) carbodiimide. The proteins, MN-derived or IIIb-derived gp120, were coupled to the surface by injection of 50 ul of a 50 ug/ml sample. Excess activated esters were quenched with 15 ul ethanolamine, 1 M pH 8.5. Typically, 4000 resonance units were immobilized. Binding of Fab fragments to immobilized gp120 was studied by injection of Fab in a range of concentrations (0.5 to 10 ug/ml) at a flow rate of 5 ul/minute. The association was monitored as the increase in resonance units per unit time. Dissociation measurements were acquired following the end of the association phase but with a flow rate of 50 ul/minute. The binding surface was regenerated with HCl, 1M NaCl, pH 3 and remained active for 20–40 measurements. […] Equilibrium association and dissociation constants were deduced from the rate constants.
The soluble M556 series Fabs were then analyzed for binding affinity to gp120 (strain IIIB).
B4 was tested, and the “Fold Increase of Mutant Kd Compared to MT4 Kd” value (from here on “Fold Increase”) was 14.3 fold and the Kd was 0.439 nM. With B5 the “Fold Increase” value was 48.1 fold and the Kd was 0.131 nM. For B6, the “Fold Increase” value was 36.2 fold and the Kd was 0.174 nM. For B7, the “Fold Increase” value was 45.3 fold and the Kd was 0.139 nM. For B8, the “Fold Increase” value was 69.5 fold and the Kd was 0.0906 nM. For B9, the “Fold Increase” value was 63 fold and the Kd was 0.101 nM.

Biological target: T1, recombinant gp120 of HIV-1 strain IIIb
Assay: SPR BIAcore, gp120 on chip
Remark: another data set of the same source
Excerpt: as §1
The soluble A–D series Fabs were then analyzed for binding affinity to gp120 strain IIIB.
With B10 the “Fold Increase” value was 5.7 fold and the Kd was 1.1 nM. B11 was tested, and the “Fold Increase” value was 1.3 fold and the Kd was 4.7 nM. B12 was tested, and the “Fold Increase” value was 28.6 fold and the Kd was 0.22 nM.

Biological target: T1, recombinant gp120 of HIV-1 strain IIIb
Assay: SPR BIAcore, gp120 on chip
Remark: another data set of the same source
Excerpt: In the assay, the gp120 glycoprotein, isolated from both MN (AgMed, Cambridge, Mass.) and IIIb (American Bio-Technologies) strains of HIV-1 were coated onto gold chips. […] As the mass of the gold chips increases due to the binding of the Fabs to the ligand, the refractive index of the chips increases indicating a coordinate increase in the increase of the mass. Measurements of the "on" rate are made in addition to the "off" rates, the latter of which occurs as the Fabs begin to dissociate from the ligand and the mass coordinately decreases, thereby allowing a measurement of the change of the refractive index. Briefly, the sensor chip was activated for immobilization with N-hydroxysuccinimide an N-ethyl-N'-(3-diethyl aminopropyl) carbodiimide. The proteins, MN-derived or IIIb-derived gp120, were coupled to the surface by injection of 50 ul of a 50 ug/ml sample. Excess activated esters were quenched with 15 ul ethanolamine, 1 M pH 8.5. Typically, 4000 resonance units were immobilized. Binding of Fab fragments to immobilized gp120 was studied by injection of Fab in a range of concentrations (0.5 to 10 ug/ml) at a flow rate of 5 ul/minute. The association was monitored as the increase in resonance units per unit time. Dissociation measurements were acquired following the end of the association phase but with a flow rate of 50 ul/minute. The binding surface was regenerated with HCl, 1M NaCl, pH 3 and remained active for 20–40 measurements. […] Equilibrium association and dissociation constants were deduced from the rate constants.
B13 was tested, and the “Fold Increase” value was 14.9 fold and the Kd was 0.42 nM. For B14, the “Fold Increase” value was 85.9 fold and the Kd was 0.074 nM. For B15, the “Fold Increase” value was 94.4 fold and the Kd was 0.067 nM. For B16, the “Fold Increase” value was 48.6 fold and the Kd was 0.13 nM. With B17 the “Fold Increase” value was 10.3 fold and the Kd was 0.61 nM. For B18, the “Fold Increase” value was 13.7 fold and the Kd was 0.46 nM. In the case of B19, the “Fold Increase” value is reported as 12.2 fold and the Kd is reported as 0.51 nM. For B20, the “Fold Increase” value was 12.6 fold and the Kd was 0.5 nM. In the case of B21, the “Fold Increase” value is reported as 14.3 fold and the Kd is reported as 0.44 nM.

Biological target: T1, recombinant gp120 of HIV-1 strain IIIb
Assay: SPR BIAcore, gp120 on chip
Remark: another data set of the same source
For B22, the koff was 0.000615 s⁻¹ and the kon was 296000 M⁻¹ s⁻¹. Binder B23 has a koff of 5.45e-06 s⁻¹ and a kon of 73200 M⁻¹ s⁻¹. Work on B24 yielded a koff of 1.78e-05 s⁻¹ and a kon of 98400 M⁻¹ s⁻¹. B25 gave a koff of 1.19e-05 s⁻¹ and a kon of 69100 M⁻¹ s⁻¹. B26 was tested, and the koff was 1.74e-05 s⁻¹ and the kon was 134000 M⁻¹ s⁻¹. With B27 the koff was 9.41e-06 s⁻¹ and the kon was 81800 M⁻¹ s⁻¹. Binder B28 has a koff of 3.39e-06 s⁻¹ and a kon of 153000 M⁻¹ s⁻¹. B29 was tested, and the koff was 3.39e-05 s⁻¹ and the kon was 893000 M⁻¹ s⁻¹.

Biological target: T1, recombinant gp120 of HIV-1 strain IIIb
Assay: SPR BIAcore, gp120 on chip
Remark: another data set of the same source
Excerpt: as §1
The soluble composite Fabs were then analyzed for binding affinity to gp120 strain IIIB.
B22 was tested, and the “Fold Increase” value was 3.02 fold, the Ka was 4.81e+08 M⁻¹ and the Kd was 2.08 nM. B23 was tested, and the “Fold Increase” value was 85.4 fold, the Ka was 1.36e+10 M⁻¹ and the Kd was 0.0738 nM. With B24 the “Fold Increase” value was 34.4 fold, the Ka was 5.46e+09 M⁻¹ and the Kd was 0.183 nM. In the case of B25, the “Fold Increase” value is reported as 36.6 fold, the Ka is reported as 5.81e+09 M⁻¹ and the Kd is reported as 0.172 nM. B26 was tested, and the “Fold Increase” value was 48.5 fold, the Ka was 7.7e+09 M⁻¹ and the Kd was 0.13 nM. In the case of B27, the “Fold Increase” value is reported as 55.8 fold, the Ka is reported as 8.88e+09 M⁻¹ and the Kd is reported as 0.113 nM. With B28 the “Fold Increase” value was 284 fold, the Ka was 4.51e+10 M⁻¹ and the Kd was 0.0222 nM. For B29, the “Fold Increase” value was 16.6 fold, the Ka was 2.63e+09 M⁻¹ and the Kd was 0.38 nM.

Each binder was assayed against T1, recombinant gp120 of HIV-1 strain IIIb (assay: SPR BIAcore, gp120 on chip (summary table)).
For B23, the Kd was 0.0738 nM. B24 showed a Kd of 0.183 nM. B25 was tested, and the Kd was 0.17 nM. Binder B26 has a Kd of 0.13 nM. Binder B27 has a Kd of 0.113 nM. For B13, the Kd was 0.42 nM. For B4, the Kd was 0.439 nM. B14 was tested, and the Kd was 0.074 nM. With B5 the Kd was 0.13 nM. With B15 the Kd was 0.067 nM. For B28, the Kd was 0.022 nM. Work on B6 yielded a Kd of 0.174 nM. Binder B7 has a Kd of 0.139 nM. B16 gave a Kd of 0.13 nM. B17 gave a Kd of 0.61 nM. B29 showed a Kd of 0.38 nM. With B12 the Kd was 0.22 nM. B8 showed a Kd of 0.906 nM. With B18 the Kd was 0.46 nM. For B19, the Kd was 0.51 nM. For B20, the Kd was 0.5 nM. B9 gave a Kd of 0.1 nM. With B21 the Kd was 0.44 nM.

— US6395275 (Scripps Research, dated 2002)
